Test results from publication PMC8545137, “Cryoelectron Microscopy Structures of AdeB Illuminate Mechanisms of Simultaneous Binding and Exporting of Substrates” (mBio, 2021).

Legend:
[1] = biological target: Acinetobacter baumannii AdeB multidrug efflux pump (Acinetobacter baumannii (AB0057)); assay: cryo-EM structure; AdeB in lipidic nanodiscs (MSP 1E3D1, E. coli total extract lipid; 20 mM Tris-HCl pH 7.5, 100 mM NaCl); 2 uM AdeB-nanodisc incubated with 20 uM ethidium bromide for 2 h; six conformational classes (three apo, three Et-bound) sorted from one sample
[2] = biological target: T1, AdeB multidrug efflux pump (Acinetobacter baumannii, UniProt Q2FD70); assay: fluorescence polarization Kd with purified AdeB; cryo-EM structures in lipidic nanodiscs (7KGG, 7KGH, 7KGI); format: binding; parameters: full-length; homotrimer
CusB (Escherichia coli) = CusB (Escherichia coli) (UniProt P77239); assay: ITC; details: cited from earlier work
[3] = biological target: T1, AdeB multidrug efflux pump; assay: fluorescence polarization titration with purified AdeB; format: binding; parameters: full-length

Chain of CusA (P38054 whole entry): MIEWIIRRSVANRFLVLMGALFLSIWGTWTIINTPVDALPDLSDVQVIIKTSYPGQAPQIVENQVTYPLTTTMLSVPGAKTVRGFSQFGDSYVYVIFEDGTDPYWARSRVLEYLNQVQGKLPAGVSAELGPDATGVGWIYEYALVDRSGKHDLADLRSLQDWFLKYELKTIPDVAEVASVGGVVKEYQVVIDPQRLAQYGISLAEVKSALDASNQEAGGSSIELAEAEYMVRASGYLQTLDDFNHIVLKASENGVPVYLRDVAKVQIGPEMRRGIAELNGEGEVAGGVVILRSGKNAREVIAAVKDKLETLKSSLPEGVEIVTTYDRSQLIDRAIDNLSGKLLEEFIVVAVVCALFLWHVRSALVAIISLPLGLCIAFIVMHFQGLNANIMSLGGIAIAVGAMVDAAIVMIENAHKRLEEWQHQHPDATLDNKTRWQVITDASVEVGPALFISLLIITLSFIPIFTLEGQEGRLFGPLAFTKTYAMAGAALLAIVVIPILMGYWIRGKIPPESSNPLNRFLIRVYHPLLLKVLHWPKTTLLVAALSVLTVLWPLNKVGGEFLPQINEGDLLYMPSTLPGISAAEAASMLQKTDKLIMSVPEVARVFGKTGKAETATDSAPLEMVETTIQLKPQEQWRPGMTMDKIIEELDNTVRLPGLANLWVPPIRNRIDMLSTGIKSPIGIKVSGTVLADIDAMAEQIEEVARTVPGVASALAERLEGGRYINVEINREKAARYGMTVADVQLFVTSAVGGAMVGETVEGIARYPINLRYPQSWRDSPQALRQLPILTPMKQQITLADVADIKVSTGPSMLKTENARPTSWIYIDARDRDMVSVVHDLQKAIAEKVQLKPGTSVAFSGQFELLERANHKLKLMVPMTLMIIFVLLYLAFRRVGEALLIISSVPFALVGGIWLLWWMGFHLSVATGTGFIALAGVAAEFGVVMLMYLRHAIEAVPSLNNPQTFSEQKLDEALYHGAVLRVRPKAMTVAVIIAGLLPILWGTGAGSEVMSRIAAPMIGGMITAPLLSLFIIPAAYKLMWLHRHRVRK

Compound “Acinetobacter baumannii AdeB multidrug efflux pump (natural protein)” has a stoichiometry N [1] of 3.
Work on CC[n+]1c(-c2ccccc2)c2cc(N)ccc2c2ccc(N)cc21 [Et, ethidium bromide] yielded a Kd [2] of 2.5 ± 0.1 µM.
For CusA (from UniProt P38054), the Kd (CusB (Escherichia coli)) is given as 5.1 µM.
Work on CC/N=c1\cc2oc3cc(NCC)c(C)cc3c(-c3ccccc3C(=O)OCC)c-2cc1C [R6G, rhodamine 6G] yielded a Kd [3] of 3.1 ± 0.1 µM.
